Where a chain is given by its changes, count along the chain named.
B1: Val (protein, UniProt P93836 1-445, looked up, variant G422V)
4-hydroxyphenylpyruvate …: MGHQNAAVSENQNHDDGAASSPGFKLVGFSKFVRKNPKSDKFKVKRFHHIEFWCGDATNVARRFSWGLGMRFSAKSDLSTGNMVHASYLLTSGDLRFLFTAPYSPSLSAGEIKPTTTASIPSFDHGSCRSFFSSHGLGVRAVAIEVEDAESAFSISVANGAIPSSPPIVLNEAVTIAEVKLYGDVVLRYVSYKAEDTEKSEFLPGFERVEDASSFPLDYGIRRLDHAVGNVPELGPALTYVAGFTGFHQFAEFTADDVGTAESGLNSAVLASNDEMVLLPINEPVHGTKRKSQIQTYLEHNEGAGLQHLALMSEDIFRTLREMRKRSSIGGFDFMPSPPPTYYQNLKKRVGDVLSDDQIKECEELGILVDRDDQGTLLQIFTKPLGDRPTIFIEIIQRVGCMMKDEEGKAYQSGGCGGFGKVNFSELFKSIEEYEKTLEAKQLVG
B2: Ser (protein, UniProt P93836 1-445, looked up, variant G422S)
4-hydroxyphenylpyruvate …: B1 4-hydroxyphenylpyruvate … with V422S
B3: Gly422 mutant His: Arabidopsis thaliana HPPD (SEQ ID NO 4) with Gly422 replaced by His, N-terminal His6-tag (protein, UniProt P93836 1-445, looked up, variant G422H)
4-hydroxyphenylpyruvate …: B1 4-hydroxyphenylpyruvate … with V422H
modifications: N-terminal His6-tag
B4: Phe (protein, UniProt P93836 1-445, looked up, variant G422F)
4-hydroxyphenylpyruvate …: B1 4-hydroxyphenylpyruvate … with V422F
B5: His (protein, UniProt P93836 1-445, looked up, variant G422H)
4-hydroxyphenylpyruvate …: B1 4-hydroxyphenylpyruvate … with V422H
B6: Leu (protein, UniProt P93836 1-445, looked up, variant G422L)
4-hydroxyphenylpyruvate …: B1 4-hydroxyphenylpyruvate … with V422L
B7: Asn (protein, UniProt P93836 1-445, looked up, variant G422N)
4-hydroxyphenylpyruvate …: B1 4-hydroxyphenylpyruvate … with V422N
B8: Cys (protein, UniProt P93836 1-445, looked up, variant G422C)
4-hydroxyphenylpyruvate …: B1 4-hydroxyphenylpyruvate … with V422C
B9: Pro (protein, UniProt P93836 1-445, looked up, variant G422P)
4-hydroxyphenylpyruvate …: B1 4-hydroxyphenylpyruvate … with V422P
B10: Met (protein, UniProt P93836 1-445, looked up, variant G422M)
4-hydroxyphenylpyruvate …: B1 4-hydroxyphenylpyruvate … with V422M
B11: Asp (protein, UniProt P93836 1-445, looked up, variant G422D)
4-hydroxyphenylpyruvate …: B1 4-hydroxyphenylpyruvate … with V422D
B12: Gly422 mutant Asn: Arabidopsis thaliana HPPD (SEQ ID NO 4) with Gly422 replaced by Asn, N-terminal His6-tag (protein, UniProt P93836 1-445, looked up, variant G422N)
4-hydroxyphenylpyruvate …: B1 4-hydroxyphenylpyruvate … with V422N
modifications: N-terminal His6-tag
B13: Gly422 mutant Cys: Arabidopsis thaliana HPPD (SEQ ID NO 4) with Gly422 replaced by Cys, N-terminal His6-tag (protein, UniProt P93836 1-445, looked up, variant G422C)
4-hydroxyphenylpyruvate …: B1 4-hydroxyphenylpyruvate … with V422C
modifications: N-terminal His6-tag
B14: Gly422 mutant Val: Arabidopsis thaliana HPPD (SEQ ID NO 4) with Gly422 replaced by Val, N-terminal His6-tag (protein, UniProt P93836 1-445, looked up, variant G422V)
4-hydroxyphenylpyruvate …: B1 4-hydroxyphenylpyruvate …
modifications: N-terminal His6-tag

Tested on: Arabidopsis thaliana HPPD
Experiment: Assay for HPPD activity (4-HPP consumption, DNP photometric readout at 405 nm) in presence and absence of Tembotrione
Type: biochemical
Settings: 5 μM Tembotrione; uninhibited enzyme activity set to 100%; 444 nM HPPD, 500 μM 4-HPP, 1 h room temperature
Procedure: (§1) HPPD produces homogentisate and CO2 from 4-HPP and O2. The enzyme is incubated with its substrate 4-HPP in the presence or absence of an inhibitor. L-ascorbic acid is present as a reductant to retain the active site iron in the ferrous form and Catalase is present to degrade toxic H2O2. After an incubation time of one hour, the reaction is stopped by addition of 2,4-Dinitrophenylhydrazine (DNP). DNP forms a hydrazone derivative with the remaining 4-HPP molecules in the assay mixture which appears in an amber-brown colour at an alkaline pH. The amount of unconsumed 4-HPP is measured photometrically at 405 nm.
(§2) For preparation of inhibitor stock solutions, Tembotrione (MW=440.82) and DKN (Mw=359.3) are dissolved in DMSO to a concentration of 10 mM. […] Further dilutions are made with ddH2O to obtain the inhibitor solutions used in the assay (5 μM, 10 μM and 20 μM). […] A 2% DMSO solution provides for half of the assay mixture in uninhibited reactions to normalize a possible inhibiting effect of DMSO.
(§3) The assay is designed for a HPPD concentration of 444 nM on a monomeric basis and a 4-HPP concentration of 500 μM. This corresponds to 44.4 pmol HPPD and 50 nmol 4-HPP in a 100 μL-assay mixture, resulting in an approximate 1000-fold excess of substrate in relation to the enzyme. The calculated theoretical molecular weight of an AtHPPD subunit is 49.515 kD which results in 2.2 μg HPPD per assay mixture. The calculated theoretical molecular weight of a PfHPPD subunit is 41.205 kD, resulting in 1.8 μg HPPD per assay mixture. The enzyme solution provides for one quarter of the assay mixture volume, so enzyme stock solutions are produced by diluting AtHPPD solutions to 88 μg*mL^−1 with 50 mM TRIS buffer; PfHPPD solutions are diluted to 72 μg*mL^−1.
(§4) The inhibitor concentrations (2.5 μM, 5 μM and 10 μM) provide for 5-fold, 10-fold and 20-fold excess of inhibitor compared to the amount of enzyme. A buffer/substrate solution is prepared which provides for one quarter of the assay mixture. 2.5 mL of buffer/substrate solution contain 1 mL 1 M TRIS buffer, 500 μL 10 mM 4-HPP solution, 500 μL 200 mM L-ascorbic acid solution, 13 μL Catalase solution and 487 μL ddH2O. The assay is carried out in Greiner F-bottom 96 well microplates and all reactions are carried out as triplicates. The controls are carried out sixfold per plate and contain either 25 μL 50 mM TRIS instead of HPPD solution (corresponding to 0% consumption of 4-HPP) or a buffer/substrate solution that contains 500 μL 1 M TRIS instead of 500 μL 10 mM 4-HPP (corresponding to 100% consumption of HPP). The reaction is started by addition of 25 μL HPPD solution to a mixture of 50 μL of the respective inhibitor solution or 50 μL 2% DMSO and 25 μL buffer/substrate solution. The reaction is allowed to proceed for 1 h at room temperature. The reaction is stopped and coloration of 4-HPP is induced by addition of 50 μL 0.04% DNP/3.8 N HCl solution. After 15 min, addition of 100 μL 5 N KOH leads to the colour shift of the hydrazone derivative. Photometric measurement with a BMG FLUOstar Galaxy microplate reader is carried out immediately at 405 nm and data obtained is used for analysis of HPPD activities in presence and absence of an inhibitor.

First: B1
Second: B2
The “Relative activity (in percentage) of At HPPD mutants in presence of Tembotrione” value of the first is higher: 22% for the first, 4% for the second.

Going from B4 to B5, the “Relative activity (in percentage) of At HPPD mutants in presence of Tembotrione” value rises from 16% to 31%.

Going from B6 to B7, the “Relative activity (in percentage) of At HPPD mutants in presence of Tembotrione” value rises from 23% to 26%.

Going from B8 to B9, the “Relative activity (in percentage) of At HPPD mutants in presence of Tembotrione” value falls from 27% to 0%.

Compared with B10, B11 is lower in “Relative activity (in percentage) of At HPPD mutants in presence of Tembotrione” value: 13% for the first, 7% for the second.

For B3, the “Relative activity (in percentage) of At HPPD mutants in presence of Tembotrione” value was “about 40%”.

Same assay, conditions: 10 μM Tembotrione; uninhibited enzyme activity set to 100%; 444 nM HPPD, 500 μM 4-HPP, 1 h room temperature

Compared with B1, B2 is lower in “Relative activity (in percentage) of At HPPD mutants in presence of Tembotrione” value: 14% for the first, 0% for the second.

Compared with B4, B5 is higher in “Relative activity (in percentage) of At HPPD mutants in presence of Tembotrione” value: 11% for the first, 40% for the second.

Going from B6 to B7, the “Relative activity (in percentage) of At HPPD mutants in presence of Tembotrione” value rises from 14% to 15%.

First: B8
Second: B9
The “Relative activity (in percentage) of At HPPD mutants in presence of Tembotrione” value of the first is higher: 19% for the first, 0% for the second.

Going from B10 to B11, the “Relative activity (in percentage) of At HPPD mutants in presence of Tembotrione” value falls from 12% to 10%.

For B3, the “Relative activity (in percentage) of At HPPD mutants in presence of Tembotrione” value was “about 40%”.

Same assay, conditions: […] Tembotrione; uninhibited enzyme activity set to 100%; 444 nM HPPD, 500 μM 4-HPP, 1 h room temperature

Compared with B12, B1 is higher in “Relative activity (in percentage) of At HPPD mutants in presence of Tembotrione” value: 39% for the first, 43% for the second.

Going from B2 to B3, the “Relative activity (in percentage) of At HPPD mutants in presence of Tembotrione” value rises from 18% to 51%.

First: B4
Second: B5
The “Relative activity (in percentage) of At HPPD mutants in presence of Tembotrione” value of the first is lower: 30% for the first, 50% for the second.

First: B6
Second: B7
The “Relative activity (in percentage) of At HPPD mutants in presence of Tembotrione” value of the first is lower: 31% for the first, 39% for the second.

B8 and B13 are the same in “Relative activity (in percentage) of At HPPD mutants in presence of Tembotrione” value: 44% for the first, 44% for the second.

First: B9
Second: B10
The “Relative activity (in percentage) of At HPPD mutants in presence of Tembotrione” value of the first is lower: 0% for the first, 18% for the second.

Compared with B11, B14 is higher in “Relative activity (in percentage) of At HPPD mutants in presence of Tembotrione” value: 20% for the first, 43% for the second.

Tested on: Pseudomonas fluorescens HPPD
Experiment: as above
Type: biochemical
Settings: 5 μM Tembotrione; uninhibited enzyme activity set to 100%; 444 nM HPPD, 500 μM 4-HPP, 1 h room temperature
Procedure: as §1, §2, §3, §4

Compared with B4, B5 is higher in “Relative activity (in percentage) of Pf HPPD mutants in presence of Tembotrione” value: 12% for the first, 13% for the second.

Going from B6 to B9, the “Relative activity (in percentage) of Pf HPPD mutants in presence of Tembotrione” value rises from 0% to 4%.

First: B10
Second: B11
The “Relative activity (in percentage) of Pf HPPD mutants in presence of Tembotrione” value of the first is lower: 7% for the first, 9% for the second.

Same assay, conditions: 10 μM Tembotrione; uninhibited enzyme activity set to 100%; 444 nM HPPD, 500 μM 4-HPP, 1 h room temperature

First: B4
Second: B5
The “Relative activity (in percentage) of Pf HPPD mutants in presence of Tembotrione” value of the first is lower: 3% for the first, 11% for the second.

B6 and B9 are the same in “Relative activity (in percentage) of Pf HPPD mutants in presence of Tembotrione” value: 0% for the first, 0% for the second.

Compared with B10, B11 is lower in “Relative activity (in percentage) of Pf HPPD mutants in presence of Tembotrione” value: 10% for the first, 0% for the second.

Same assay, conditions: […] Tembotrione; uninhibited enzyme activity set to 100%; 444 nM HPPD, 500 μM 4-HPP, 1 h room temperature

Going from B4 to B5, the “Relative activity (in percentage) of Pf HPPD mutants in presence of Tembotrione” value falls from 33% to 26%.

First: B6
Second: B9
The “Relative activity (in percentage) of Pf HPPD mutants in presence of Tembotrione” value of the first is lower: 4% for the first, 5% for the second.

First: B10
Second: B11
The “Relative activity (in percentage) of Pf HPPD mutants in presence of Tembotrione” value of the first is lower: 16% for the first, 18% for the second.
